For this data set, the target named is Hfq (His6-tagged) (UniProt P0A6X3 1-102). The data set is described as follows: EMSA; affinity comparable to GcvB; tRNA competitor; Single-RNA EMSA: 10 mM Tris-HCl pH 7.4, 0.1 mM EDTA, 10 mM NH4Cl, 10 mM NaCl, 10 mM KCl, 1 mg/ml tRNA, 4% glycerol, RT 5 min; ~40 fmol RNA (legend); Methods say. To be noted: protein: recombinant; tags: His6; chain copies: 6; label: 32P; 3' terminator hairpin. In general terms: In EMSA bound probe runs differently from free probe, usually more slowly.
Sequence of Hfq (His6-tagged) (P0A6X3 whole entry): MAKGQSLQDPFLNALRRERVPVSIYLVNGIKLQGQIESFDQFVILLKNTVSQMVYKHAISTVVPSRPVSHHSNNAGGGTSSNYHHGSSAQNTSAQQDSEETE

One molecule from article PMC4104026 can be followed below.

B1: AgvB (EcOnc01) sRNA (structured_RNA)
RNA: CGAUAACACAACAAUAUCAGUAUCUCAUGCUAUUGCCCGAACCCAUUCGGGCAUUUUU
Regarding B1, the binding result is “binds”.
